Test results from publication PMC7110113, “Termination of non‐coding transcription in yeast relies on both an RNA Pol II CTD interaction domain and a CTD‐mimicking region in Sen1” (The EMBO Journal, 2020).
Residue numbers refer to the chain shown, from its start. Ends that are not written are not given here. FAM = 5,6-carboxyfluorescein

How the values were obtained:
Test in all cases: fluorescence polarisation; fluorescence anisotropy, equilibrium binding of Nrd1 CID variants to FAM-labelled NIM peptides; 10°C, 50 mM Na2HPO4, 100 mM NaCl, pH 8; 1:1 model with non-specific binding (DynaFit)
Settings in all cases: both partners purified
Nrd1 CID R133A = biological target: T1, Nrd1 CID R133A (S. cerevisiae, UniProt P53617 1-153, R133A)
T1 construct: the construct for anisotropy is made as described previously (Kubicek et al, 2012); also called CID(R133A)-His6; source: recombinant, produced and purified as described previously (Kubicek et al, 2012); plasmid with T7 promoter
T1 sequence (looked up): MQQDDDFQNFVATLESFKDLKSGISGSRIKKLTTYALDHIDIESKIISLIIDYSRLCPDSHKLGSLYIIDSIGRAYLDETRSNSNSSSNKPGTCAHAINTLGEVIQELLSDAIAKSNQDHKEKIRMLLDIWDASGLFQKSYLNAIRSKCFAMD

Nrd1 CID I130N = biological target: T2, Nrd1 CID I130N (S. cerevisiae, UniProt P53617 1-153, I130N)
T2 construct: the construct for anisotropy is made as described previously (Kubicek et al, 2012); also called CID(I130N)-His6; source: recombinant, produced and purified as described previously (Kubicek et al, 2012); plasmid with T7 promoter
T2 sequence (looked up): T1 sequence (looked up) with I130N, A133R

Nrd1 CID L20D = biological target: T3, Nrd1 CID L20D (S. cerevisiae, UniProt P53617 1-153, L20D)
T3 construct: the construct for anisotropy is made as described previously (Kubicek et al, 2012); also called CID(L20D)-His6; source: recombinant, produced and purified as described previously (Kubicek et al, 2012); plasmid with T7 promoter
T3 sequence (looked up): T1 sequence (looked up) with L20D, A133R

Nrd1 CID R133G = biological target: T4, Nrd1 CID R133G (S. cerevisiae, UniProt P53617 1-153, R133G)
T4 construct: the construct for anisotropy is made as described previously (Kubicek et al, 2012); also called CID(R133G)-His6; source: recombinant, produced and purified as described previously (Kubicek et al, 2012); plasmid made with QuikChange, T7 promoter
T4 sequence (looked up): T1 sequence (looked up) with A133G

Nrd1 CID I130K = biological target: T5, Nrd1 CID I130K (S. cerevisiae, UniProt P53617 1-153, I130K)
T5 construct: the construct for anisotropy is made as described previously (Kubicek et al, 2012); also called CID(I130K)-His6; source: recombinant, produced and purified as described previously (Kubicek et al, 2012); plasmid with T7 promoter
T5 sequence (looked up): T1 sequence (looked up) with I130K, A133R

Nrd1 CID R28D = biological target: T6, Nrd1 CID R28D (S. cerevisiae, UniProt P53617 1-153, R28D)
T6 construct: the construct for anisotropy is made as described previously (Kubicek et al, 2012); also called CID(R28D)-His6; source: recombinant, produced and purified as described previously (Kubicek et al, 2012); plasmid with T7 promoter
T6 sequence (looked up): T1 sequence (looked up) with R28D, A133R

Nrd1 CID M126A = biological target: T7, Nrd1 CID M126A (S. cerevisiae, UniProt P53617 1-153, M126A)
T7 construct: source: recombinant, produced and purified as described previously (Kubicek et al, 2012)
T7 sequence (looked up): T1 sequence (looked up) with M126A, A133R

Kd (Nrd1 CID R133A): 1.8 ± 0.08 µM
Kd (Nrd1 CID I130N): 8.9 ± 0.5 µM
Kd (Nrd1 CID L20D): 16.9 ± 1.5 µM
Kd (Nrd1 CID R133G): 1.6 ± 0.04 µM
Kd (Nrd1 CID I130K): 36.7 ± 4.6 µM
Kd (Nrd1 CID R28D): 78.2 ± 11.5 µM
Kd (Nrd1 CID M126A): 1.4 ± 0.07 µM
B1: Sen1 NIM peptide (Sen1 aa 2,052-2,063) (peptide, UniProt Q00416 2052-2063, looked up)
peptide: {FAM}-DDDEDDYTPSIS
notes: Sen1, S. cerevisiae, fragment harbouring aa 2,052-2,063; source: synthetic peptide
